Source: PMC9250652, “Functional analysis of the dihydroflavonol 4-reductase family of Camellia sinensis: exploiting key amino acids to reconstruct reduction activity” (Horticulture Research, 2022)

Legend:
Experiment in all cases: purified protein
Assay type in all cases: biochemical, Camellia sinensis
Conditions in all cases: apparent Km, NADPH, 0.1 M potassium phosphate pH 7.0, 30 °C
[1] = substrate: O=C1c2c(O)cc(O)cc2O[C@H](c2cc(O)c(O)c(O)c2)[C@H]1O
[2] = substrate: O=C1c2c(O)cc(O)cc2O[C@H](c2ccc(O)c(O)c2)[C@H]1O
[3] = substrate: O=C1c2c(O)cc(O)cc2O[C@H](c2ccc(O)cc2)[C@H]1O

Row | Protein | Km [1] | Km [2] | Km [3]
1 | CsDFRc (Camellia sinensis) (protein) MEDTKSKLQEGSAVESLTTTTYCVTGATGYIGSWLVKSLLQRGYRVHATVRNQAKTLHLLPLWGGGDRLRVFRADLHKEGSFNEAVQGCSGVFHVAASMEFEVPAKEDIDSYVRANVIEPAINGTLNLLKSCLKTPSVRRVVFTSSISTMTAKDSAGKWRSVVDESCQNPIDRVWKTKTGAWVYVLSKLLTEEAAFQFANENSIDLVSVITTTVAGPFLTSTVPTSVQVLLSPITGDSKFSRILSAVNSRMGSIALVHIEDICSAHIFLMEHDGAEGRYICSAHSSVISQLVDHLAKEHPFSNMQRLVEEEHGSVPSEISSKKLRDLGFNFKFGLEDIIHHTVSSCVDCGFLCPTVN | 105.56 µM | 81.80 µM | 42.31 µM
2 | CsDFRb1 (Camellia sinensis; C126T) (protein, only point mutants active) MEVVEVKNGYGGGGGTTVCVTGASGFIGSWLVMRLLQRGYYVRATVRDPDNTDKVKHLLDLPNATTHLSLWKADLDEDGSFDDAIQGCHGVFHVATPMNFVFVMDPENEYIKPTVDGVLNVMRSCTKAKTVKRIIYTSTMATIEYQQKPPSQYDESIWTDVDFCRARKMFAWMYLVAKTEAEKAAWKFAEDNGPDLITVHPCSVIGPFITPYKPPCTSMALALITKNKAFYPMLTQGHAVHVDDVCNAHIYLFEHPQAKGRYICSSHSFTILDLASSLSKKYPEYNIQTKFEDIDESLKPIPCPSKKLLDLGFKFKYNSDECDAGDLCAEAIEACKEKGQMPSL | 47.75 µM | 102.57 µM | 131.09 µM
3 | CsDFRb1 (Camellia sinensis; N120S) (protein, only point mutants active) MEVVEVKNGYGGGGGTTVCVTGASGFIGSWLVMRLLQRGYYVRATVRDPDNTDKVKHLLDLPNATTHLSLWKADLDEDGSFDDAIQGCHGVFHVATPMNFVFVMDPENEYIKPTVDGVLSVMRSCCKAKTVKRIIYTSTMATIEYQQKPPSQYDESIWTDVDFCRARKMFAWMYLVAKTEAEKAAWKFAEDNGPDLITVHPCSVIGPFITPYKPPCTSMALALITKNKAFYPMLTQGHAVHVDDVCNAHIYLFEHPQAKGRYICSSHSFTILDLASSLSKKYPEYNIQTKFEDIDESLKPIPCPSKKLLDLGFKFKYNSDECDAGDLCAEAIEACKEKGQMPSL | 96.58 µM | 108.66 µM | 148.96 µM
4 | CsDFRa (Camellia sinensis) (protein) MKDSVASATASAPGTVCVTGAAGFIGSWLVMRLLERGYIVRATVRDPANLKKVKHLLDLPKADTNLTLWKADLNEEGSFDEAIEGCSGVFHVATPMDFESKDPENEVIKPTINGVLSIIRSCTKAKTVKRLVFTSSAGTVNVQEHQQPVFDENNWSDLDFINKKKMTGWMYFVSKTLAEKAAWEAAKENNIDFISIIPTLVVGPFIMPTFPPSLITALSPITRNEGHYSIIKQGQFVHLDDLCESHIFLYERPQAEGRYICSSHDATIHDLAKLMREKWPEYNVPTEFKGIDKDLPVVSFSSKKLIGMGFEFKYSLEDMFRGAIDTCREKGLLPHSFAENPVNGNKV | 58.44 µM | 41.80 µM | 145.10 µM
